Measured values: publication PMC7319358

Molecular target: Cy5UbPRG fluorescent activity-based probe (UniProt P0CG48)

Substance: recombinant DUB2 (enzyme)
- percent of DUB2 reacted with the probe: 85%
